Key:
R10A [1] = biological target: T1, R10A; assay: flow cytometry, CHO-K1; sub-column 1 of 2
T1 construct: also called hCD27 R10A
T1 receptor: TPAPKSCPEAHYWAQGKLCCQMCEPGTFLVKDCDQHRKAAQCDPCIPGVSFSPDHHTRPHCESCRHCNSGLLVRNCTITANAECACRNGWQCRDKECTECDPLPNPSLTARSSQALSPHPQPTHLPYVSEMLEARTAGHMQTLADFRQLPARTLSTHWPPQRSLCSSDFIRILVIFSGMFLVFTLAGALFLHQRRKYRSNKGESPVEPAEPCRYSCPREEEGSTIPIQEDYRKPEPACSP

H36A = biological target: T2, H36A; assay: flow cytometry, CHO-K1; sub-column 1 of 2
T2 construct: also called hCD27 H36A
T2 receptor: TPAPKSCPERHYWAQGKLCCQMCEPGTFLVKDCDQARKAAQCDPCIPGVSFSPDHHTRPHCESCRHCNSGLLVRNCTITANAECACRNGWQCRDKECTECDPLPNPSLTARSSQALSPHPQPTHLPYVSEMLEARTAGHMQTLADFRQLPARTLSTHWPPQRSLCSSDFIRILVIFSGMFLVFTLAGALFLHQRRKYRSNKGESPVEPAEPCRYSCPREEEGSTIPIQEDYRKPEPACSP

D43A [2] = biological target: T3, D43A; assay: flow cytometry, CHO-K1; sub-column 1 of 2
T3 construct: also called hCD27 D43A
T3 receptor: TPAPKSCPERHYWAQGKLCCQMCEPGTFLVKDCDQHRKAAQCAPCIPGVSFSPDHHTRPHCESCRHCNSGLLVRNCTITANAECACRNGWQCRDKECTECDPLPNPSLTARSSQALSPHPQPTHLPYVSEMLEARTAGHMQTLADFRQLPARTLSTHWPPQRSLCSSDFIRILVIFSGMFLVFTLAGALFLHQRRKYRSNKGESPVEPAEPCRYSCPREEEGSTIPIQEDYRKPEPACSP

H60A = biological target: T4, H60A; assay: flow cytometry, CHO-K1; sub-column 1 of 2
T4 construct: also called hCD27 H60A
T4 receptor: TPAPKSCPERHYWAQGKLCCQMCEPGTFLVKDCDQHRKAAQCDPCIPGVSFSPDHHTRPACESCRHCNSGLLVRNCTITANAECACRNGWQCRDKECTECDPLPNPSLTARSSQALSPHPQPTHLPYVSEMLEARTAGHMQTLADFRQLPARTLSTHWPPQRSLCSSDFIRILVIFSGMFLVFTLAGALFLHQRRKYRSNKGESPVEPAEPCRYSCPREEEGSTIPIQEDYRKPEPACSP

E9A [3] = biological target: T5, E9A; assay: flow cytometry, CHO-K1; sub-column 1 of 2
T5 construct: also called hCD27 E9A
T5 receptor: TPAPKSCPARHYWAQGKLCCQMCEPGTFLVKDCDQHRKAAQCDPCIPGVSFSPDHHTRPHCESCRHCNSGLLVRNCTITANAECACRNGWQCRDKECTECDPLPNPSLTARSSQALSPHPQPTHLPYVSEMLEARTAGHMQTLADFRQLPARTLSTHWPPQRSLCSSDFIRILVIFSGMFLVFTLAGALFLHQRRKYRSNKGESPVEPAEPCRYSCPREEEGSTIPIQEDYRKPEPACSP

R10A [4] = biological target: T1, R10A; assay: flow cytometry, CHO-K1; sub-column 2 of 2
W13A = biological target: T6, W13A; assay: flow cytometry, CHO-K1; sub-column 2 of 2
T6 construct: also called hCD27 W13A
T6 receptor: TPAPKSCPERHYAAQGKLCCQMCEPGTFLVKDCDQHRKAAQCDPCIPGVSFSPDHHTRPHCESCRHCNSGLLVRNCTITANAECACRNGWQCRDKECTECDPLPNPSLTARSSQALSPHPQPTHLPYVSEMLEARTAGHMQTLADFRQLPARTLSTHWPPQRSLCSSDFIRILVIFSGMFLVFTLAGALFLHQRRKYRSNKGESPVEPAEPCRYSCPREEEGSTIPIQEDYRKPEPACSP

D43A [5] = biological target: T3, D43A; assay: flow cytometry, CHO-K1; sub-column 2 of 2
R87A = biological target: T7, R87A; assay: flow cytometry, CHO-K1; sub-column 2 of 2
T7 construct: also called hCD27 R87A
T7 receptor: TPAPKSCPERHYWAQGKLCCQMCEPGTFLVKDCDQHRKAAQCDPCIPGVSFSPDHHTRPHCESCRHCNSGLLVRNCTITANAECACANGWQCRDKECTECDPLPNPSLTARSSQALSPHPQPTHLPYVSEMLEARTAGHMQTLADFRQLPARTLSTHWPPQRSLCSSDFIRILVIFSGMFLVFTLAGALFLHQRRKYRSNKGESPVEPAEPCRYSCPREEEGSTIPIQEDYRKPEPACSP

N88A = biological target: T8, N88A; assay: flow cytometry, CHO-K1; sub-column 2 of 2
T8 construct: also called hCD27 N88A
T8 receptor: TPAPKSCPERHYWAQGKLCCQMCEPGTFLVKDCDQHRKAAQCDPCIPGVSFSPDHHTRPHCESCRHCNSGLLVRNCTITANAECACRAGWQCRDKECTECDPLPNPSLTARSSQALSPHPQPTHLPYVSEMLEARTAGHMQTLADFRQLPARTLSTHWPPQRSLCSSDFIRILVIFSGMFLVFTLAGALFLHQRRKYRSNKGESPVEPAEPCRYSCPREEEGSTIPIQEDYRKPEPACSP

P8A = biological target: T9, P8A; assay: flow cytometry, CHO-K1; sub-column 2 of 2
T9 construct: also called hCD27 P8A
T9 receptor: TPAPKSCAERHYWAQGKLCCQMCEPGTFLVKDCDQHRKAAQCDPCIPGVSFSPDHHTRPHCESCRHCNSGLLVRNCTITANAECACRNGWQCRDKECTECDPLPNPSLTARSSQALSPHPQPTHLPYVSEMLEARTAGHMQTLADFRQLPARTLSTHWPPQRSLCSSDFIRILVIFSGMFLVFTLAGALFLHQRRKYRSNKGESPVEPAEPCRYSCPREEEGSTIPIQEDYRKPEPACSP

E9A [6] = biological target: T5, E9A; assay: flow cytometry, CHO-K1; sub-column 2 of 2

Molecule: 1A4 (mouse IgG1) (antibody)
- % of WT hCD27 binding (geo mean FITC) (R10A [1]): 107%
- % of WT hCD27 binding (geo mean FITC) (H36A): 111%
- % of WT hCD27 binding (geo mean FITC) (D43A [2]): 195%
- % of WT hCD27 binding (geo mean FITC) (H60A): 167%
- % of WT hCD27 binding (geo mean FITC) (E9A [3]): 98.2%
- % of WT hCD27 binding (geo mean FITC) (R10A [4]): 113%
- % of WT hCD27 binding (geo mean FITC) (W13A): 93.4%
- % of WT hCD27 binding (geo mean FITC) (D43A [5]): 93.4%
- % of WT hCD27 binding (geo mean FITC) (R87A): 108%
- % of WT hCD27 binding (geo mean FITC) (N88A): 116%
- % of WT hCD27 binding (geo mean FITC) (P8A): 79.1%
- % of WT hCD27 binding (geo mean FITC) (E9A [6]): 122%

Molecule: 9F4 (mouse IgG2a) (antibody)
- % of WT hCD27 binding (geo mean FITC) (R10A [1]): 104%
- % of WT hCD27 binding (geo mean FITC) (H36A): 88.5%
- % of WT hCD27 binding (geo mean FITC) (D43A [2]): 201%
- % of WT hCD27 binding (geo mean FITC) (H60A): 185%
- % of WT hCD27 binding (geo mean FITC) (E9A [3]): 96.6%
- % of WT hCD27 binding (geo mean FITC) (R10A [4]): 99%
- % of WT hCD27 binding (geo mean FITC) (W13A): 86.5%
- % of WT hCD27 binding (geo mean FITC) (D43A [5]): 92.5%
- % of WT hCD27 binding (geo mean FITC) (R87A): 98.8%
- % of WT hCD27 binding (geo mean FITC) (N88A): 104%
- % of WT hCD27 binding (geo mean FITC) (P8A): 62.2%
- % of WT hCD27 binding (geo mean FITC) (E9A [6]): 109%

B1: Antibody hCD27.131A (mouse parental 131A) (antibody, V domains shown)
VH: QIQLVQSGPELKKPGETVKISCKASGYTFTNYGMNWVKQAPGKGLKWMGWINTNTGEPTYAEEFKGRFAFSLETSATTAYLQINNLKNEDTATYFCAREGDAMDYWGQGTSVTVSS
VL: QIVLTQSPAIMSASPGEKVTMTCSASSSVSYMHWYQQKSGTSPKRWIYDTSKLASGVPARFSGSGSGTSYSLTISSMEAEDAATYYCQQWNSYPFTFGSGTKLEIK
notes: mouse IgG1; also called mouse hCD27.131A
- % of WT hCD27 binding (geo mean FITC) (R10A [1]): 103%
- % of WT hCD27 binding (geo mean FITC) (H36A): 54.1%
- % of WT hCD27 binding (geo mean FITC) (D43A [2]): 194%
- % of WT hCD27 binding (geo mean FITC) (H60A): 178%
- % of WT hCD27 binding (geo mean FITC) (E9A [3]): 96.7%
- % of WT hCD27 binding (geo mean FITC) (R10A [4]): 108%
- % of WT hCD27 binding (geo mean FITC) (W13A): 88.6%
- % of WT hCD27 binding (geo mean FITC) (D43A [5]): 96.2%
- % of WT hCD27 binding (geo mean FITC) (R87A): 111%
- % of WT hCD27 binding (geo mean FITC) (N88A): 124%
- % of WT hCD27 binding (geo mean FITC) (P8A): 15.9%
- % of WT hCD27 binding (geo mean FITC) (E9A [6]): 132%
